The values that follow are results of earlier work, collected in article PMC3437676.

This data set has as its target Asp25 (UniProt position 515, KEALLDTGADD). The data set can be described thus: NMR. The conditions noted are these: free model peptide.

For the substance “HIV-1 protease model peptide, residues 20-30 (Human immunodeficiency virus 1)”, the pKa result was “near 4.0”.
